Results on one substance are retold here after article doi:10.1101/2025.01.10.632391.

The test has as its target angiopoietin-like 6 (ANGPTL6) (UniProt Q8NI99). In words: SPR. A general note: In SPR one partner is held on a chip, and binding of the other changes the refractive index at the surface.
Sequence of UniProt Q8NI99 (Q8NI99 21-470): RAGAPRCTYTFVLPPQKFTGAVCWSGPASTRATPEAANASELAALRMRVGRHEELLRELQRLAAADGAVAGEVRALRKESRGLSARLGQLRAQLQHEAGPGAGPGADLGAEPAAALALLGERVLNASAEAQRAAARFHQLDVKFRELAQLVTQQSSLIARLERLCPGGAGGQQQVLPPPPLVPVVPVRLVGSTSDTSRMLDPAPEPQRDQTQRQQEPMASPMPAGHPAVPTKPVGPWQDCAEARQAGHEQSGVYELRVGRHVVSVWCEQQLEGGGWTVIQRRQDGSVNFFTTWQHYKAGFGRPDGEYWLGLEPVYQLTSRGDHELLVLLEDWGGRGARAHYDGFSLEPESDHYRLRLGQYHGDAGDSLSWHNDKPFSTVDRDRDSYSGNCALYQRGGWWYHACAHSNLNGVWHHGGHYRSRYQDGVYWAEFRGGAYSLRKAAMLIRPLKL

The term Kd denotes the free concentration of one partner at which half of the binding sites on the other are occupied at equilibrium, for simple one-to-one binding. A high value points to weaker binding. The term koff denotes the first-order rate constant of dissociation. Higher therefore signals fast dissociation. Turning to “αVβ5 integrin (from UniProt P06756 31-1048; P18084 24-719) (complex)”, the Kd worked out at 13 nM and the koff stood at 0.0012 s⁻¹.
